Reference: the domain aggregation screens of Martell et al. (2025)

Test: soluble fraction after stress (log2 fold change); higher = more stays soluble; pooled small domains, quantitative proteomics
Conditions: stress: pH 4
Procedure, shortened: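 Aggregation propensity is estimated from the fold change in each domain's soluble amount after acid stress. Pooled small-domain libraries were stressed at pH 4, and higher log2 values mean more stayed soluble.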

“HMPERMLEPLLNGNEIMKVTQLQPGPKVGLIRDALLQAQISGDVTDTESAKAFVQDYAKRNI” and “HMKMSLKENLLELLQKSSGEFLSGERAAETLGVSRTAVWKAVTSLKNEGYNIESVTNRGYRFS” are within 0.2 log units of each other in “soluble fraction (log2)” value: 0.386 for the first, 0.395 for the second.

“HMDKGMQTMIDNLHKNTGKTLEEWIALVNRANFAKHGEVISFLKEKHGLTHGYANLVAHRLK” and “HMYRYGETPMVVVPDLIGRTVSDIYEEMNADFRLEKFGNGNTVISQAPKPGERVEQGSVIRVYLSGQDQ” are within 0.2 log units of each other in “soluble fraction (log2)” value: -0.361 for the first, -0.206 for the second.

Compared with “HMTPQVTVPDVTGQSFASAKQVLESLGLTVKQQGSTGENDKVIGQNPTSGNADKGATITLTTQDS”, “HMSKQQVRSILDDIPNIGETRRKALMRQFQSLEKIREASVGQLREVDGMNEKAAQSVYQFFHK” is higher in “soluble fraction (log2)” value: -0.154 for the first, 0.108 for the second.

Going from “HMERPKSLRELALEHLRNSIIDGSLKMGQVLSERKISEELGVSKSPVREALAQLRDEGLVSIEPQKGARV” to “HMDAQLRVPDLTPYNYSELKENTSLYEGFTIEVVEERSTGDYAAGTVLDQDPKADTLIQDGDSTVIKLVIA”, the “soluble fraction (log2)” value falls from 0.288 to -0.115.

Compared with “HMQDLVAVPALTGLTENDAINKAKANNLIAVVSEYKTENSVEPGKVLEQDPESSTEVKKGTIIKLVVS”, “HMDSQSVFADLVKSLSQKIASIPVWFEYTKNEQYDLISSYVSAKLKDLGVEFSQEEKEKFITMFMNS” is lower in “soluble fraction (log2)” value: 0.16 for the first, -0.34 for the second.

Going from “HMEPDTVVVPNFVGKVYASEIEGNEAYSDFTFVIKEGNDPEQDIGVVLKQTPNEGLEVKKGKEITLTINQ” to “HMHELKIEKVAEAPNGAMRLLLSDGSEWVLGVKSWNRLNLSLEKILDVNVLRALEKESQYHLLRTKALEL”, the “soluble fraction (log2)” value rises from -0.169 to 0.171.

Compared with “HMIYKLTLLRDLPEAKAGFDFYLRGGLASHDGEEWFSWVTREPIYARLYWLYVEKREEWVLVEETDI”, “HMRRPRGVFNLVPGKRFGFITPDGGGEDVFAHLANVRAGHVAEDRNAVEYGIGRGPDGRDQAVDIVPMP” is higher in “soluble fraction (log2)” value: -2.47 for the first, 0.00891 for the second.

Going from “HMSEEVKSQPISILDLSTRASNGLKNEGIETIGELVKYSEDELLGLDKFGQNSLKEIKKKLEEIGLTLKEH” to “HMERRDEINSVVSRYVSAITEGKYDLAEVDETGKLRVQTEGREVLPEALSRGTLEQFYFAFRMAVGSI”, the “soluble fraction (log2)” value falls from -0.0527 to -0.779.

Going from “HMEGTAAAVALKGLMEQSGVDLREVMAAVESRGYYPKGTPFENYDPAFVSGVLVGAWDQVYKMILDQRPIP” to “HMGQVGIPFSDFLAEVENGQVREVVIKGNDISGTFNDNRGFSTYAPNDPNLVEKLTKRGVVINAQPTE”, the “soluble fraction (log2)” value rises from -1.1 to 0.123.

First: HMSEKLTLEAANEAAGMRIDKWLAMQLPELSRSRIEALISGGGVVVNGKNPSKSLKLKGGEQIELEIPE
Second: HMSSSYTEMQLDKLKKLLEKETLLSSEKSELKSLIHDFDKIPEVVSPLIVGEYLRLKNKYIAVINSLE
The “soluble fraction (log2)” value of the first is higher: 0.108 for the first, -0.322 for the second.

First: HMGPLTMGQRIVRLRTQAGLSQDALAEQLGVSRQSVSKWETDGSVPDLDRLVKLSKVFGVTLDELVKG
Second: HMQPTVEGLMKALETMTFNERTALALHYGLTGRQPMTFMAIGRYLGISDGRAEALVNSAIRKLR
The “soluble fraction (log2)” value of the first is higher: at least 0.43 for the first, 0.0497 for the second.

Compared with “HMSRGTRIDPNWQPSPEDRALARAEGFSDPEIDREALQFRDYWLGASGSNAVKLDWSATWRNWVRRAATNF”, “HMQISDSGELEKIVLQVIEENPKPAEQVRSGNEKAIGALVGGVMKATQGRADGGEVNRLLRQHLGL” is higher in “soluble fraction (log2)” value: -0.204 for the first, 0.23 for the second.

First: HMFTLDDLQATYDIFERAEQNSDAMLAFQKVITAEGLDFDLTSPQGIVDFFKGAAPTEIYDLYEAS
Second: HMKARLRRVFQIYYGDAYSIMKALKETFPLQTIVHEPRTNSIVVDTPDEETATKIGDVVSAL
The “soluble fraction (log2)” value of the first is lower: -0.956 for the first, -0.563 for the second.

“HMETGELQQILEDVFSKNIGIVQDKREAAFSILMGMIMAKSRGRADGALVSTLLKKKLTEFLATSDQVR” and “HMGVEKHLRITGTSTVSWKDAIVQAVAEASKTIDYLSNVKIIEQRARIDGKKLVEYFVDLDLSFVID” are within 0.2 log units of each other in “soluble fraction (log2)” value: -0.196 for the first, -0.38 for the second.

Going from “HMSSDLESVIGTHSQEANFALRSWGWIQPDETWKNLRPDQVSQILERANEFMAKAIESFANAQSE” to “HMKLISVAVMRASDAAEIAGGTDSKTLMYRAGLGLFQSWDWHGKIDIVTGSGNNAGDGYVLALLL”, the “soluble fraction (log2)” value rises from -0.984 to -0.548.

“HMKRITGHLTEKNKKWYAVINLYDTDGKRKEKWQGLNLDANKGNKREAEHRLRQILDQYNTD” and “HMNADSLIGENIRISERVSNMDQTGMAVVHGQEWTVRTRNDNEIIEPGEEAKILAISGVKLIVEK” are within 0.2 log units of each other in “soluble fraction (log2)” value: 0.125 for the first, -0.0665 for the second.

Going from “HMFTDAEIKQFAAAAVEVTKIQQDSTISAADKQPKMLAVVQSSGLPPEKFNQIGQAAAADPALQQRIQA” to “HMQSDQLSDREREILRLIGSGRTNQEISQELQVSGSTVRTHLQHILDKLGLENRNQAVLYAIRIGLAAPP”, the “soluble fraction (log2)” value falls from 0.159 to -0.372.

First: HMAHKRVDGTIVTPLTADTIVLRTGTHGEQPFEIRDTTRHKLESLQKGDMVILLIDTDNKVIDVAIPP
Second: HMDLRAPKPIKEMGEEYIKLYQYLRKGESENIVMSKMNISLDDYDYMRSEIEDKLSLYNMLDLLRKP
The “soluble fraction (log2)” value of the first is lower: -0.263 for the first, 0.0296 for the second.

First: HMDVPTSSITEVKKSPMDVFAQARKAETGVYIFNREKIAGVMLTKEQYEALVEELNTLRDTL
Second: HMELEKIRPDLDGLEIMAILGISPSPIVGRAYQYLLDLRMDRGPLGPDAAKAELLNWWSLNQPK
The “soluble fraction (log2)” value of the first is higher: -1.24 for the first, -1.62 for the second.
